The results in this text go back to PMC8385403.

The target of one assay is Rod-B. The experiment in a line: co-sedimentation; filament disassembly assay without His-Aurora-B; Rod-B proteins in kinase buffer (20 mM Tris pH 7.5, 10 mM MgCl2, 1 mM DTT, 50 μM ATP), 60 min at 30 °C, then high-speed centrifugation; filaments to nonfilamentous fraction.
Assay [1] concerns the target His-survivin (UniProt O15392). The experiment in a line: pull-down (quantification of Coomassie-stained SDS-PAGE). To be noted: mean ± SEM of three independent experiments; parent: est. 1.0; read off a plot.
The target of assay [2] is Rod-B phosphorylated by His-Aurora-B. The experiment in a line: co-sedimentation; filament disassembly assay with His-Aurora-B; Rod-B proteins with recombinant His-Aurora-B in kinase buffer (20 mM Tris pH 7.5, 10 mM MgCl2, 1 mM DTT, 50 μM ATP), 60 min at 30 °C, then high-speed centrifugation; filaments to nonfilamentous fraction.
For assay [3], the target named is Rod-B^T1847A. The assay is described as above.
In assay [4] the target is Rod-B^T1847A. The experiment in a line: co-sedimentation; filament disassembly assay without His-Aurora-B; Rod-B proteins in kinase buffer (20 mM Tris pH 7.5, 10 mM MgCl2, 1 mM DTT, 50 μM ATP), 60 min at 30 °C, then high-speed centrifugation; filaments to nonfilamentous fraction.
Assay [5] concerns the target His-survivin (UniProt O15392). The experiment in a line: pull-down; direct pull-down; His-survivin proteins (40-45 μg) held on Ni2+-NTA beads, Rod-B proteins (40-45 μg) added; Buffer B: 20 mM Tris-HCl pH 8, 275 mM NaCl, 5% glycerol, 1% NP-40, 30 mM imidazole; 4 °C; eluted with 250 mM imidazole; Coomassie-stained SDS-PAGE.

Rod-B phosphorylated by His-Aurora-B, sequence (P35580 whole entry): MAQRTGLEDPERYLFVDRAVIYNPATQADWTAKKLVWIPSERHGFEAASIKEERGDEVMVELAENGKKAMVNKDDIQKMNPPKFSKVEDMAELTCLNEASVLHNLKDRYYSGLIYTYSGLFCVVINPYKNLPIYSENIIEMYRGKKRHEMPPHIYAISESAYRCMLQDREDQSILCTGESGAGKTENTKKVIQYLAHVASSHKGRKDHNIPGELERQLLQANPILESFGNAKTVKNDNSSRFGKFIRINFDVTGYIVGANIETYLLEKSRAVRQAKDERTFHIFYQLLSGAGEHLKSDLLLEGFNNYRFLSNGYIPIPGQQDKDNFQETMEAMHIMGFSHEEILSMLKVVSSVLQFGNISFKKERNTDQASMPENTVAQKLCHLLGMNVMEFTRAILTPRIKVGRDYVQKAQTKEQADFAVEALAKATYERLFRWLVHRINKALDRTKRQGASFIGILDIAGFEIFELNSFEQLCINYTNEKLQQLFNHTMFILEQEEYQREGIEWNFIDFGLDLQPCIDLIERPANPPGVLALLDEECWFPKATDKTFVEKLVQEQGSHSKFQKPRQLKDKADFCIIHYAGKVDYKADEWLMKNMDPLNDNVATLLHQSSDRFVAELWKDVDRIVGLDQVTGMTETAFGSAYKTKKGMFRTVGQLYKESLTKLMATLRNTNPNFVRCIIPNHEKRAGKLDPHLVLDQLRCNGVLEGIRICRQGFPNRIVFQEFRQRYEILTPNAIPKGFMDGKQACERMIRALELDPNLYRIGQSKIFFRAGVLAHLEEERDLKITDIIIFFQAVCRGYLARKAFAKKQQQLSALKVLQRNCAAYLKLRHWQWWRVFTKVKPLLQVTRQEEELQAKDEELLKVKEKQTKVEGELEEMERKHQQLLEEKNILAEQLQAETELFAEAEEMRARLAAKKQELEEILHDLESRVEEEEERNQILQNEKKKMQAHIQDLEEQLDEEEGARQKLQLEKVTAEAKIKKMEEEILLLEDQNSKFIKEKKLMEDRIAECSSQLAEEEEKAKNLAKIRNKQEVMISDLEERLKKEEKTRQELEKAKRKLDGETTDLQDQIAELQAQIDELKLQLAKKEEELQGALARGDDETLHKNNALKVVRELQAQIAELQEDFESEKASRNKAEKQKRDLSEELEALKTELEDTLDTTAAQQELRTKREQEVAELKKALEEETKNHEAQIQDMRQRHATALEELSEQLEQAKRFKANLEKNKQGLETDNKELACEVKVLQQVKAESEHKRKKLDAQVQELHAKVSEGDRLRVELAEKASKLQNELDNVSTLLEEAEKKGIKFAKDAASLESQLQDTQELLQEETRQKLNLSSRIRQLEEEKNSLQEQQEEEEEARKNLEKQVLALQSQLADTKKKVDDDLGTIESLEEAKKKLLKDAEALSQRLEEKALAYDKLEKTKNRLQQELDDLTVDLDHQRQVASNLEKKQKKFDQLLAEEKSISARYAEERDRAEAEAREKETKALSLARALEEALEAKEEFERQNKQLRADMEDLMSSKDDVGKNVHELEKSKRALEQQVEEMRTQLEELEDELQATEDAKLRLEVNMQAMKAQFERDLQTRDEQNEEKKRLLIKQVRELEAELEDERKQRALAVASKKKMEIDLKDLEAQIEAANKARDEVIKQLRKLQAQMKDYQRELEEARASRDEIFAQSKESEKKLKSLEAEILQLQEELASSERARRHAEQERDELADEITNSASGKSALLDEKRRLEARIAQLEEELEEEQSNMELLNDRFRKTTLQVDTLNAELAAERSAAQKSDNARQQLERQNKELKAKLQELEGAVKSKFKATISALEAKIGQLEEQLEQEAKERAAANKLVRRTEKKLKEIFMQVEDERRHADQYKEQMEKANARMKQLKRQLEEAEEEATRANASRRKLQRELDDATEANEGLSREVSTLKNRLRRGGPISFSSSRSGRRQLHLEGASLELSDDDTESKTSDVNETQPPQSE
Rod-B, sequence (P35580 whole entry): as above

As to Rod-B (domain or fragment), the percent in the nonfilamentous fraction in the assay with Rod-B came out at 28%. Turning to Rod-B T1847A, the ratio to parent with His-survivin [1] stood at 1.1. On to “Rod-B phosphorylated by His-Aurora-B (domain or fragment)”, for which, in assay [2], the percent in the nonfilamentous fraction stood at 42%.

Rod-B^T1847A (domain or fragment): the figures for the percent in the nonfilamentous fraction with Rod-B^T1847A [3] and with Rod-B^T1847A [4] were 36.8% and 34%, respectively. In the assay with His-survivin [5], Rod-B^T1847D (domain or fragment) displayed a percent reduction of binding to survivin relative to Rod-B of 80%.
